Target: T1, GST-Abp1 SH3 domain (S. cerevisiae, UniProt P15891 532-592)
T1 construct: SH3 domain of Abp1, S. cerevisiae
T1 sequence (looked up): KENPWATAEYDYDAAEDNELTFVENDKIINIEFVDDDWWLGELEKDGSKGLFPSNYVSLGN
Assay: SPR; BIAcoreX; GST-fused SH3 domains (and GST as control) amine-coupled to CM5 chips; peptides flowed at 25°C in 10 mM HEPES, 150 mM NaCl, 3.4 mM EDTA, 0.005% P20, pH 7.4, 15 μl/min, 500 μM to 65 nM; steady-state model
Details: both partners purified

Kd: ≥ 100 µM
B1: Ynl094w peptide RRPPPPPIPSTQKP (peptide)
peptide: RRPPPPPIPSTQKP
notes: stretch of Ynl094w, S. cerevisiae; also called tetradecapeptide in the Ynl094w protein
